Reference: a protein production outcome set (Wang et al. 2014)

Assay: label from the status in PepcDB records

Sequence | protein production
MENSDETKMSEEILALVDEFQQAWPLEGFGGALEMKGRRLDLQGIRVLKKGPQDGVARSSCYGDCRSEDDEATEWITFQVKRVKKPKGDHKKTPGKKVETGQIENGHRYQANLEITGPKVASPGPQGKKRDYQRLGWPSPDECLKLRWVELTAIVSTWLAVSSKNIDITEHIDFATPIQQPAMEPLCNGNLPTSMHTLDHLHGVSNRASLHYTGESQLTEVLQNLGKDQYPQQSLEQIGTRIAKVLEKSQTSWVLSSMAALYWRVKGQGKKAIDCLRQALHYAPHQMKDVPLISLANILHNAKLWNDAVIVATMAVEIAPHFAVNHFTLGNVYVAMEEFEKALVWYESTLKLQPEFVPAKNRIQTIQCHLMLKKGRRSP | failed
MTIFRFADGNSMTTKTNLLPHIPSSDAIISRWRWLAIIVSLVMALLASAFILLLSNAVDREVAQLNTSSELREQADLVLISLIDMAVADRSYAKNHKAEDKARFEHAARNLDDILEYIELIVYAHPQWYEWFTSFKKEVEARKAFMNDHMRALDALPDQSSQPSSSSEIPKIQVARLAQLMTSFINGDDVVRQKQREGIALMRAALTLAAIVSVVSTFMSAYFVINRFHRDVRSLKMYQLLLHSENIALEARVKERTQELERARNHAEKERQRVEMLLQDVSHRIGNSLGTVSSLLGLQLNRSDNEEVRSVLGAARDRIQTISTAHRRLRLSDDMETTLLAEFLSSVVHDVELAMPLELRENITIHTNFKECRLSSRDATTLGIILGELLTNSLKHAFPDKRSGDIYISFGPQKNGQLMLIVEDNGVGMKNQTQEKKTGLGRVVVEQLCMQFGEKPLFETSALGGTKIVIPLPKLTPNASKEAYA | failed
MSGPSTYQPQSPLMKWLEQRLPIAGLVHSSFIAYPTPRNLNYWWTFGAILSMMLAVQIVTGIVLAMHYTPHVDLAFDSVERIVRDVNYGWLLRNMHAAGASMFFIAVYVHMLRGLYYGSYKAPREVLWILGVIIYLLMMATGFMGYVLPWGQMSFWGATVITNLFSAFPIVGDSIVTLLWGGYSVGNPTLNRFFSLHYLLPFVIAGVVVLHVWALHVTGQNNPAGVEPKTEKDTVPFTPYATLKDVFGMSCFLVFYSWFIFYMPNYLGDAENYVPANPGVTPPHIVPEWYYLPFYAILRSIPNKLMGVIAMFGAIIVLLFLPWLDSCKVRSSRYRPMAKRFFWAFVVTCLVLGWLGSKPAEGIYTTLGQVFTFFYFAYFLIVLPVLGRMEKTLPLPNSIAEDVLNKGKVAKAVAGLVAVLFAGGLMVGGVQPAKANEGGENPPSLQWSFAGPFGTYDRAQLQRGFKIYKEVCSNCHSLKLLQYRNLAEPGGPGFTVEQAKEIAAAAQIKDGPNDQGEMFERPGRLADTFHSPFPNEQAARAANGGAAPPDMSLLAKARTYPRGFPQFIFDFFTQFQEQGPNYIAALLQGYEDTPPEGFSLPDGSFYNKWYPGHSIKMPPPIQAGMVSYDDGTPETLEQYAKDISTFLVWASEPHMEARKRLGLQVMIFLVILSSLLYFVKRKVWSNVH | failed
MTVNMTKGQAISLQKNDGGTLTAVRMGLGWQAAPRRGLFGSRTREIDLDASAVLFADKQPVDVVFFRHLVSDDGSVRHTGDNLVGGVGQGGDDEAILVDLQRLPVHIDQIVFTVNSFTGQTFQEVQNAFCRLVDETNGEELARYTLAGGGQYTAQIMAKVHRAGAGWQMTALGTPSNGRTFQDLMPAILPHL | failed
MQRNLSHIISQATSAPLLLEPAYARVFFCALGRESGINSLHIPGNNESLDQSDMALVTGDFMATGKPQARFYQVVNGIAVLPVTGTLVHKLGGMRPFSGMTGYDGVTARLQQAVSDPEVKGILLDIDSPGGQAAGAFDCADMIYRMREQKPVWALANETACSAAMLLAAACSHRLVTQTSRMGSIGVVMAHTSYAEKLKQEGIDITLIYSGAHKADLTPSQKLPESVYADYQQRMDEARKMFAEKVARYTGLSVDAVMATEAAVYDGQAIITTGLADGMVNAADAIGVMAEAINSNKTGGTMPELSAADAVTQENQRVMGILGCPEARGHEALAQMLAGQPGMSVAQAKSILAAAAPADTTSTADRILALEEAGGRETLAQTLAAMPEMTVEQARTILAASPIAAATSLHDAVMALDEAKGREELAEKLAVMPGMTTDQARDLLAAAPDKSGNAGLSMNNAFDAFMQSHSPGPISGGKGHSNDTETTLLMSIPGTSAT | failed
MEKNFILSVGMSVMFLFISSIKTVQAQQLGIGVKTELNGKVRFCNYDEAYFMPDTNTRIKVTGLEIAYDSSLNYYDIFVNVKGDKVNLHIKYSNGGEGAYIYKGIDRISKMDVVVTTKKKLSLYANNYGVNSYKEVESSVGIIIVFPKTYMISSIVPIKNKVETVNELSTQLRKGVITDSDGYTNIRKSNSVNSEIIGKIVDREVFTYWETNDNWYIVQTAKGIKGYVHKSRIKPVEERNEQKIRYYKVKNGDKIQDIAEKLGVSIDTICKLNRVKITTVLREGQALRISR | failed
MDKVFGRTQGLKKSELKRISNLYRRRLPKDRVLTPELAHTLAALSAEVGRPLSLVLDREGRVVRVAVGDAKDVPFPEEGWSERRLSGYRLLHTHLGPGGLSRPDLSVLFLRRLDNLAALEVEADGRPGLLHLAFLSPPRALEEDWRVLPPKPFHQYLDLDLWGEVMALEEELSRQARVLEVRDGSGERALLVGVDTGEGPEAEAVLRELAELTRTAGGVPVKQILVFRKSLDPRYLVGLGKLEELKSLAYHENASTLIFGVDLTPAQAREIERVTGLKVLDRTQLILDIFALHAKTPEAQAQVELAQLRYLLPRLVGKGKEMSRLGGGIGTRGPGETKLEVDRRRLQDRIAHLSRKLQDYALRRQEARQKRKRRGVPLVAVVGYTNAGKTTLLRALTRAGEEGEDKLFATLRPLTRRGFLPGVGEVLFTDTVGFIRHMPEELLTAFRATLEEVREADVLVHVLDASEEGALERHRVVRDLLLDLGVEAPVVLALNKADRAAPYDLYFLGERLGGVPVSALKGTGLKELKEALARALLDLGVRPQAWAQYT | failed
MGHHHHHHSHMATGQDRVVALVDMDCFFVQVEQRQNPHLRNKPCAVVQYKSWKGGGIIAVSYEARAFGVTRSMWADDAKKLCPDLLLAQVRESRGKANLTKYREASVEVMEIMSRFAVIERASIDEAYVDLTSAVQERLQKLQGQPISADLLPSTYIEGLPQGPTTAEETVQKEGMRKQGLFQWLDSLQIDNLTSPDLQLTVGAVIVEEMRAAIERETGFQCSAGISHNKVLAKLACGLNKPNRQTLVSHGSVPQLFSQMPIRKIRSLGGKLGASVIEILGIEYMGELTQFTESQLQSHFGEKNGSWLYAMCRGIEHDPVKPRQLPKTIGCSKNFPGKTALATREQVQWWLLQLAQELEERLTKDRNDNDRVATQLVVSIRVQGDKRLSSLRRCCALTRYDAHKMSHDAFTVIKNCNTSGIQTEWSPPLTMLFLCATKFSASAP | failed
SKSTKNDVKITALSTSESQIISHMLRLLIEHDTHGKIKPTLVNNLGSSTIQHNALINGDANISGVRYNGTDLTGALKEAPIKDPKKAMIATQQGFKKKFDQTFFDSYGFANTYAFMVTKETAKKYHLETVSDLAKHSKDLRLGMDSSWMNRKGDGYEGFKKEYGFDFGTVRPMQIGLVYDALNTEKLDVALGYSTDGRIAAYDLKVLKDDKQFFPPYAASAVATNELLRQHPELKTTINKLTGKISTSEMQRLNYEADGKGKEPAVVAEEFLKKHHYFD | not failed
MVQSLAKQVIHQAVEVNAQDIYIIPKGDCYELYMRIDDERRFIDVFEFNRMASLISHFKFVAGMNVGEKRRSQLGSCDYELSEGRLVSLRLSSVGDYRGQESLVIRILY | failed
MLSKILKTSLCFIFMTCWVTTAQAFKGPLETPASMKLHATTSQLTAVTRNGNRLAAVGARGLVLLSDDNGKKWQQVAVPVSSNLVSVQFPVPDQGWAVGHDGVVLHSGDGGRTWSKQLDGNQVAKIMLKHYEKLAAEGDAAASKILPDIQRILQEGADKPFMDVWFLDEKEGFVAGAFNLIMHTTDAGKTWVPLFERTDNPKNLHIYALKGVGKEVYLAGEMGMLRRWDRASQRFVTIASPYKGTFFGLLAKDTTILAFGLRGNAFRSSDRGNTWRKLNTNTTAGLTGGTFLDDGRAVLVSQDGQVLVIDVGSETFVPAKVSSPMAFSSVAPAGKNGIVAVGSRGVITESLK | failed
KVGLIIISHGRIATETVNVVKELLGVKFPVAIDMPLDEKPINIYNKAVELSKIIDQGKGILFLVDIGSLTNIGQIVNKRTNISTKTIDRVDLLMALEATRKVSMGEEELDEIFFSLLKDRMGYNYELEKHIDKS | failed
MDDVVEELLRIVVESLQYEEGNLNEAVDLAINFSTKNSIFFDQLLSLSTYCGSEGSYELAYVFAKTTANLSTGSEKAVAHHNAGTASYFLNLPMEAEEHYKLALQADPKHVNTHSNYGLLLSDMGRRDEAEQQYKLALKLDPKHVNTHYNYGILLYDMRRLDEAGEQYKLALESEPKHVKTHYNYGNLLSDMGSLDEAEEQYKLALESEPNDADIHYNYGLLLYNMESLDEAEEQYKLALESEPNDASTHSNYGILLSDMGRRDEAEEQYKLALESDPKHVNTHYNYGNLLSDMGRLDEAEEQYKLALESDPKHVKTHYNYGNLLSDMGRLDEAEEQYKLALESDPNDASIHSNYGILLSDMGRHEEAEEQYKLALETDPNDADIHYNYGNLLKRMGRLDEVEKQYILALEADPKHVNTHYNYGKLLEQMGRLDEAEKQYKIAIGIDPKMPNSHGAYGLLLFFQDLEEEAIKETEVASRLCRENGDKVKEHLSLAWLYEKFANKYYNLKDYKKSGEYAEISGDEYIEAGKQAGESFKDTSLTKGYTLKGRAKIRKLEIKTPFYKDIIKRIWNKESYEIEKFTKIINCIKDASICYEKAAKASPKDNQLCNACSISMSCLSEMLDYMFAVIKQKKTPELEDKLKNWNEKLSIAKGAYQEHSKGELFIESLYKLMGCIQNLDKYKKYGTREYGRAFEECRKELTEIANNIEGPIQKIIENVTKKMDVCRLKQLPYAGTETGYIPQPNKLSQFLKWILDPKRIGIGVFGIIITVIVNHYNEYLFSLIKRTVTMLLSKI | failed
MEEFAVVIIGAGPAGGQCARQLAQQGVRVLLVEQHSNFSQNNYSSAASPLETMALFDLPPGVVARYWRNLAIAATEKEQIWYSDQPRGVVFDFAKLRQFLADTVTKAGGQVWLGHRFWGYQQVGDGLEVTLRRSSKNSLSSDSVEKVEKVTVKTQVLIDATGSKRAVINCGQPKATDNNQYYRGIGTEYLITVDETTHQRFADTLVFFLGYRWSPQGYSWIFPMDNHQLKVGTAIFAGQHRYLGELKPLRSYTEAIIRDYLKLEKSQYHLEEIHGSVLDYAVNQGDTYHRGSVLAIGDAVSTVNFLGGEGIRHGMQGANIAVPFVADYLRGHVQAFEKYEQAMKAHFAEPWQRTEKLSQRVYLEFGDRQIDLGVTYLSYLRYDDVLDLLFHYRFDRIYGGITPLLLKKVAQFSQQCRQWLRKLSPLEHHHHHH | failed
MRIECYSWSDVSEQILEQAIALQNSAFEDMKGNFYQVDIPYKLVLAIDDNQVIGHVAVYLRDVYLDSFPETIGILSCVVVAHKYRGKGVAASLIKMAHAILKEHSVNFSILFAVSHAYYLSSGYIPMKNLTRFIENNEKKEFIYDGGMVCELGSQNWNVNILELNGEVV | failed
MVMARNRNSNQLASHGAQAALDQMKYEIAQEFGVQLGADTSSRANGSVGGEITKRLVAMAEQQLGGGYTRLEHHHHHH | not failed
MQNIAVHEASTLMRYISNAIGSIRDPQELFRTVTDKLRLVFEFDSAFIITLDRDRRFINVVFEMVRFDLPDTIQRKKRPVAGSWIESHLGDEGVSVVAIEGEMDRYPADFPVPRMLYDLGMRQVVLSPLRSGGKVIGFLNFVSREQKQWKESDKELLSTLSSPVAVALSSALAYEELRQREA | failed
MGFKCGIVGLPNVGKSTLFNALTKAGIEAANFPFCTIEPNTGVVPMPDPRLDQLAEIVKPQRTLPTTMEFVDIAGLVKGASKGEGLGNQFLTNIRETEAIGHVVRCFENDNIIHVSGKVNPADDIEVINTELALADLDTCERAIHRVQKKAKGGDKDAKAELAVLEKCLPQLENAGMLRALDLSAEEKAAIRYLSFLTLKPTMYIANVNEDGFENNPYLDQVREIAAKEGSVVVPVCAAVEADIAELDDEERDEFMQELGLEEPGLNRVIRAGYKLLNLQTYFTAGVKEVRAWTIPVGATAPQAAGKIHTDFEKGFIRAQTISFEDFITYKGEQGAKEAGKMRAEGKDYIVKDGDVMNFLFNV | not failed
